Results reported in patent US20020127673A1 (REGENTS OF THE UNIVERSITY OF MICHIGAN, published 2002).

Molecular target: T1, HA-tagged wild-type Nod2 (human, UniProt Q9HC29 1-1040)
T1 construct: Expressed by transfection in HEK293T cells and tested in cell lysates; also called wt Nod2; pcDNA3-Nod2-HA; not shown: HA tag
Assay: co-immunoprecipitation from co-transfected HEK293T cells
From the text: The CARD motif functions as an effector domain that mediates specific homophilic interaction with downstream CARD-containing molecules (Hofmann et al., Trends Biochem. Sci. 22: 155-156 [1997]).

T1 sequence (Q9HC29 whole entry R703H): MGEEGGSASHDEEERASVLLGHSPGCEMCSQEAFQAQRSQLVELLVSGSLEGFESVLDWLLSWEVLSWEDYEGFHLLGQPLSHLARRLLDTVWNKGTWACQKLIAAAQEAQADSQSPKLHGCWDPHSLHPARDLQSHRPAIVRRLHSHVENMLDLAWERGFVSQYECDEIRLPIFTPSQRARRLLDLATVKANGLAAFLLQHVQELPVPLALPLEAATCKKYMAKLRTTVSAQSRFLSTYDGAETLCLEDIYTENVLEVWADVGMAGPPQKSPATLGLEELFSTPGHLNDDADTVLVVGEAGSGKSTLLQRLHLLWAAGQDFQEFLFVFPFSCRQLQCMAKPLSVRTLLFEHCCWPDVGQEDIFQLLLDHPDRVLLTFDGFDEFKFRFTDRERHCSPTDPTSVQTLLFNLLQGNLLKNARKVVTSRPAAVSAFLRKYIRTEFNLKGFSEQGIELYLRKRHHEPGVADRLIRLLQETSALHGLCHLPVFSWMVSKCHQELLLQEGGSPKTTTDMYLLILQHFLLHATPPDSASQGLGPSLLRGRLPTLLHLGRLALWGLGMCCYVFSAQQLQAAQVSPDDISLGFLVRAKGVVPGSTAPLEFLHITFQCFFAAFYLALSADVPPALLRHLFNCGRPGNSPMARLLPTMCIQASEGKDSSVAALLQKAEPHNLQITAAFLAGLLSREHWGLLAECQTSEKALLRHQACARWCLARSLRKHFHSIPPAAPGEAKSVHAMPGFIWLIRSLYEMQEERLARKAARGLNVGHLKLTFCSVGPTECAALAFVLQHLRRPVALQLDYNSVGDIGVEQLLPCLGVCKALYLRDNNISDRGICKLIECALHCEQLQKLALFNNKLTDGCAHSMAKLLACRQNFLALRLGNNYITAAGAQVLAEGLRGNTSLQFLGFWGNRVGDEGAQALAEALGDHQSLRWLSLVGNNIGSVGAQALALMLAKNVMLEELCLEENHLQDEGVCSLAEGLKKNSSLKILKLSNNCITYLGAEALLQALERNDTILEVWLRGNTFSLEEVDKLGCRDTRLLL

Row | Binder | binding result
1 | Ced-4 (other, UniProt P30429 1-549, looked up, Construct and tag not described) MLCEIECRALSTAHTRLIHDFEPRDALTYLEGKNIFTEDHSELISKMSTRLERIANFLRIYRRQASELGPLIDFFNYNNQSHLADFLEDYIDFAINEPDLLRPVVIAPQFSRQMLDRKLLLGNVPKQMTCYIREYHVDRVIKKLDEMCDLDSFFLFLHGRAGSGKSVIASQALSKSDQLIGINYDSIVWLKDSGTAPKSTFDLFTDILLMLKSEDDLLNFPSVEHVTSVVLKRMICNALIDRPNTLFVFDDVVQEETIRWAQELRLRCLVTTRDVEISNAASQTCEFIEVTSLEIDECYDFLEAYGMPMPVGEKEEDVLNKTIELSSGNPATLMMFFKSCEPKTFEKMAQLNNKLESRGLVGVECITPYSYKSLAMALQRCVEVLSDEDRSALAFAVVMPPGVDIPVKLWSCVIPVDICSNEEEQLDDEVADRLKRLSKRGALLSGKRMPVLTFKIDHIIHMFLKHVVDAQTIANGISILEQRLLEIGNNNVSVPERHIPSHFQKFRRSSASEMYPKTTEETVIRPEDFPKFMQLHQKFYDSLKNFACC | no binding
2 | TRAF-1 (other, UniProt Q13077 1-416, looked up, Construct and tag not described) MASSSGSSPRPAPDENEFPFGCPPTVCQDPKEPRALCCAGCLSENPRNGEDQICPKCRGEDLQSISPGSRLRTQEKAHPEVAEAGIGCPFAGVGCSFKGSPQSVQEHEVTSQTSHLNLLLGFMKQWKARLGCGLESGPMALEQNLSDLQLQAAVEVAGDLEVDCYRAPCSESQEELALQHFMKEKLLAELEGKLRVFENIVAVLNKEVEASHLALATSIHQSQLDRERILSLEQRVVELQQTLAQKDQALGKLEQSLRLMEEASFDGTFLWKITNVTRRCHESACGRTVSLFSPAFYTAKYGYKLCLRLYLNGDGTGKRTHLSLFIVIMRGEYDALLPWPFRNKVTFMLLDQNNREHAIDAFRPDLSSASFQRPQSETNVASGCPLFFPLSKLQSPKHAYVKDDTMFLKCIVETST | no binding
3 | TRAF-2 (other, UniProt Q12933 1-501, looked up, Construct and tag not described) MAAASVTPPGSLELLQPGFSKTLLGTKLEAKYLCSACRNVLRRPFQAQCGHRYCSFCLASILSSGPQNCAACVHEGIYEEGISILESSSAFPDNAARREVESLPAVCPSDGCTWKGTLKEYESCHEGRCPLMLTECPACKGLVRLGEKERHLEHECPERSLSCRHCRAPCCGADVKAHHEVCPKFPLTCDGCGKKKIPREKFQDHVKTCGKCRVPCRFHAIGCLETVEGEKQQEHEVQWLREHLAMLLSSVLEAKPLLGDQSHAGSELLQRCESLEKKTATFENIVCVLNREVERVAMTAEACSRQHRLDQDKIEALSSKVQQLERSIGLKDLAMADLEQKVLEMEASTYDGVFIWKISDFARKRQEAVAGRIPAIFSPAFYTSRYGYKMCLRIYLNGDGTGRGTHLSLFFVVMKGPNDALLRWPFNQKVTLMLLDQNNREHVIDAFRPDVTSSSFQRPVNDMNIASGCPLFCPVSKMEAKNSYVRDDAIFIKAIVDLTGL | no binding
4 | TRAF-6 (other, UniProt Q9Y4K3 1-522, looked up, Construct and tag not described) MSLLNCENSCGSSQSESDCCVAMASSCSAVTKDDSVGGTASTGNLSSSFMEEIQGYDVEFDPPLESKYECPICLMALREAVQTPCGHRFCKACIIKSIRDAGHKCPVDNEILLENQLFPDNFAKREILSLMVKCPNEGCLHKMELRHLEDHQAHCEFALMDCPQCQRPFQKFHINIHILKDCPRRQVSCDNCAASMAFEDKEIHDQNCPLANVICEYCNTILIREQMPNHYDLDCPTAPIPCTFSTFGCHEKMQRNHLARHLQENTQSHMRMLAQAVHSLSVIPDSGYISEVRNFQETIHQLEGRLVRQDHQIRELTAKMETQSMYVSELKRTIRTLEDKVAEIEAQQCNGIYIWKIGNFGMHLKCQEEEKPVVIHSPGFYTGKPGYKLCMRLHLQLPTAQRCANYISLFVHTMQGEYDSHLPWPFQGTIRLTILDQSEAPVRQNHEEIMDAKPELLAFQRPTIPRNPKGFGYVTFMHLEALRQRTFIKDDTLLVRCEVSTRFDMGSLRREGFQPRSTDAGV | no binding
5 | RIP (enzyme, UniProt Q13546 1-671, looked up, Construct and tag not described for this test) MQPDMSLNVIKMKSSDFLESAELDSGGFGKVSLCFHRTQGLMIMKTVYKGPNCIEHNEALLEEAKMMNRLRHSRVVKLLGVIIEEGKYSLVMEYMEKGNLMHVLKAEMSTPLSVKGRIILEIIEGMCYLHGKGVIHKDLKPENILVDNDFHIKIADLGLASFKMWSKLNNEEHNELREVDGTAKKNGGTLYYMAPEHLNDVNAKPTEKSDVYSFAVVLWAIFANKEPYENAICEQQLIMCIKSGNRPDVDDITEYCPREIISLMKLCWEANPEARPTFPGIEEKFRPFYLSQLEESVEEDVKSLKKEYSNENAVVKRMQSLQLDCVAVPSSRSNSATEQPGSLHSSQGLGMGPVEESWFAPSLEHPQEENEPSLQSKLQDEANYHLYGSRMDRQTKQQPRQNVAYNREEERRRRVSHDPFAQQRPYENFQNTEGKGTAYSSAASHGNAVHQPSGLTSQPQVLYQNNGLYSSHGFGTRPLDPGTAGPRVWYRPIPSHMPSLHNIPVPETNYLGNTPTMPFSSLPPTDESIKYTIYNSTGIQIGAYNYMEIGGTSSSLLDSTNTNFKEEPAAKYQAIFDNTTSLTDKHLDPIRENLGKHWKNCARKLGFTQSQIDEIDHDYERDGLKEKVYQMLQKWVMREGIKGATVGKLAQALHQCSRIDLLSSLIYVSQN | no binding
6 | NIK (enzyme, UniProt Q99558 1-947, looked up, Construct and tag not described) MAVMEMACPGAPGSAVGQQKELPKAKEKTPPLGKKQSSVYKLEAVEKSPVFCGKWEILNDVITKGTAKEGSEAGPAAISIIAQAECENSQEFSPTFSERIFIAGSKQYSQSESLDQIPNNVAHATEGKMARVCWKGKRRSKARKKRKKKSSKSLAHAGVALAKPLPRTPEQESCTIPVQEDESPLGAPYVRNTPQFTKPLKEPGLGQLCFKQLGEGLRPALPRSELHKLISPLQCLNHVWKLHHPQDGGPLPLPTHPFPYSRLPHPFPFHPLQPWKPHPLESFLGKLACVDSQKPLPDPHLSKLACVDSPKPLPGPHLEPSCLSRGAHEKFSVEEYLVHALQGSVSSGQAHSLTSLAKTWAARGSRSREPSPKTEDNEGVLLTEKLKPVDYEYREEVHWATHQLRLGRGSFGEVHRMEDKQTGFQCAVKKVRLEVFRAEELMACAGLTSPRIVPLYGAVREGPWVNIFMELLEGGSLGQLVKEQGCLPEDRALYYLGQALEGLEYLHSRRILHGDVKADNVLLSSDGSHAALCDFGHAVCLQPDGLGKSLLTGDYIPGTETHMAPEVVLGRSCDAKVDVWSSCCMMLHMLNGCHPWTQFFRGPLCLKIASEPPPVREIPPSCAPLTAQAIQEGLRKEPIHRVSAAELGGKVNRALQQVGGLKSPWRGEYKEPRHPPPNQANYHQTLHAQPRELSPRAPGPRPAEETTGRAPKLQPPLPPEPPEPNKSPPLTLSKEESGMWEPLPLSSLEPAPARNPSSPERKATVPEQELQQLEIELFLNSLSQPFSLEEQEQILSCLSIDSLSLSDDSEKNPSKASQSSRDTLSSGVHSWSSQAEARSSSWNMVLARGRPTDTPSYFNGVKVQIQSLNGEHLHIREFHRVKVGDIATGISSQIPAAAFSLVTKDGQPVRYDMEVPDSGIDLQCTLAPDGSFAWSWRVKHGQLENRP | no binding
7 | TRADD (other, UniProt Q15628 1-312, looked up, Construct and tag not described) MAAGQNGHEEWVGSAYLFVESSLDKVVLSDAYAHPQQKVAVYRALQAALAESGGSPDVLQMLKIHRSDPQLIVQLRFCGRQPCGRFLRAYREGALRAALQRSLAAALAQHSVPLQLELRAGAERLDALLADEERCLSCILAQQPDRLRDEELAELEDALRNLKCGSGARGGDGEVASAPLQPPVPSLSEVKPPPPPPPAQTFLFQGQPVVNRPLSLKDQQTFARSVGLKWRKVGRSLQRGCRALRDPALDSLAYEYEREGLYEQAFQLLRRFVQAEGRRATLQRLVEALEENELTSLAEDLLGLTDPNGGLA | no binding
8 | IKKα (enzyme, UniProt O15111 1-745, looked up, Construct and tag not described for this test) MERPPGLRPGAGGPWEMRERLGTGGFGNVCLYQHRELDLKIAIKSCRLELSTKNRERWCHEIQIMKKLNHANVVKACDVPEELNILIHDVPLLAMEYCSGGDLRKLLNKPENCCGLKESQILSLLSDIGSGIRYLHENKIIHRDLKPENIVLQDVGGKIIHKIIDLGYAKDVDQGSLCTSFVGTLQYLAPELFENKPYTATVDYWSFGTMVFECIAGYRPFLHHLQPFTWHEKIKKKDPKCIFACEEMSGEVRFSSHLPQPNSLCSLVVEPMENWLQLMLNWDPQQRGGPVDLTLKQPRCFVLMDHILNLKIVHILNMTSAKIISFLLPPDESLHSLQSRIERETGINTGSQELLSETGISLDPRKPASQCVLDGVRGCDSYMVYLFDKSKTVYEGPFASRSLSDCVNYIVQDSKIQLPIIQLRKVWAEAVHYVSGLKEDYSRLFQGQRAAMLSLLRYNANLTKMKNTLISASQQLKAKLEFFHKSIQLDLERYSEQMTYGISSEKMLKAWKEMEEKAIHYAEVGVIGYLEDQIMSLHAEIMELQKSPYGRRQGDLMESLEQRAIDLYKQLKHRPSDHSYSDSTEMVKIIVHTVQSQDRVLKELFGHLSKLLGCKQKIIDLLPKVEVALSNIKEADNTVMFMQGKRQKEIWHLLKIACTQSSARSLVGSSLEGAVTPQTSAWLPPTSAEHDHSLSCVVTPQDGETSAQMIEENLNCLGHLSTIIHEANEEQGNSMMNLDWSWLTE | no binding
9 | IKKβ (enzyme, UniProt O14920 1-756, looked up, Construct and tag not described for this test) MSWSPSLTTQTCGAWEMKERLGTGGFGNVIRWHNQETGEQIAIKQCRQELSPRNRERWCLEIQIMRRLTHPNVVAARDVPEGMQNLAPNDLPLLAMEYCQGGDLRKYLNQFENCCGLREGAILTLLSDIASALRYLHENRIIHRDLKPENIVLQQGEQRLIHKIIDLGYAKELDQGSLCTSFVGTLQYLAPELLEQQKYTVTVDYWSFGTLAFECITGFRPFLPNWQPVQWHSKVRQKSEVDIVVSEDLNGTVKFSSSLPYPNNLNSVLAERLEKWLQLMLMWHPRQRGTDPTYGPNGCFKALDDILNLKLVHILNMVTGTIHTYPVTEDESLQSLKARIQQDTGIPEEDQELLQEAGLALIPDKPATQCISDGKLNEGHTLDMDLVFLFDNSKITYETQISPRPQPESVSCILQEPKRNLAFFQLRKVWGQVWHSIQTLKEDCNRLQQGQRAAMMNLLRNNSCLSKMKNSMASMSQQLKAKLDFFKTSIQIDLEKYSEQTEFGITSDKLLLAWREMEQAVELCGRENEVKLLVERMMALQTDIVDLQRSPMGRKQGGTLDDLEEQARELYRRLREKPRDQRTEGDSQEMVRLLLQAIQSFEKKVRVIYTQLSKTVVCKQKALELLPKVEEVVSLMNEDEKTVVRLQEKRQKELWNLLKIACSKVRGPVSGSPDSMNASRLSQPGQLMSQPSTASNSLPEPAKKSEELVAEAHNLCTLLENAIQDTVREQDQSFTALDWSWLQTEEEEHSCLEQAS | no binding
10 | caspase-1 (enzyme, UniProt P29466 1-404, looked up, Construct and tag not described) MADKVLKEKRKLFIRSMGEGTINGLLDELLQTRVLNKEEMEKVKRENATVMDKTRALIDSVIPKGAQACQICITYICEEDSYLAGTLGLSADQTSGNYLNMQDSQGVLSSFPAPQAVQDNPAMPTSSGSEGNVKLCSLEEAQRIWKQKSAEIYPIMDKSSRTRLALIICNEEFDSIPRRTGAEVDITGMTMLLQNLGYSVDVKKNLTASDMTTELEAFAHRPEHKTSDSTFLVFMSHGIREGICGKKHSEQVPDILQLNAIFNMLNTKNCPSLKDKPKVIIIQACRGDSPGVVWFKDSVGVSGNLSLPTTEEFEDDAIKKAHIEKDFIAFCSSTPDNVSWRHPTMGSVFIGRLIEHMQEYACSCDVEEIFRKVRFSFEQPDGRAQMPTTERVTLTRCFYLFPGH | no binding
